Positions of bridges follow the written chain, without caps; N, C: chain ends. Non-standard residues stand in square brackets, D forms with d. No end group written: not given here. *: point of attachment. Isobutyryl(2-imidazol-4-yl) = CC(C)(C(=O)*)c1c[nH]cn1; Palmitoyl = CCCCCCCCCCCCCCCC(=O)*; Myristoyl = CCCCCCCCCCCCCC(=O)*; DMIA = not defined here; PEG = not defined here; Aib = CC(C)(N)C(=O)O
B1: AIB2, AIB16, K10(C14) Gluc Amide (peptide)
peptide: H[Aib]QGTFTSDK(Myristoyl)SKYLD[Aib]RRAQDFVQWLMNT-NH2
modifications: N-terminus assumed
SMILES: CCCCCCCCCCCCCC(=O)NCCCC[C@H](NC(=O)[C@H](CC(=O)O)NC(=O)[C@H](CO)NC(=O)[C@@H](NC(=O)[C@H](Cc1ccccc1)NC(=O)[C@@H](NC(=O)CNC(=O)[C@H](CCC(N)=O)NC(=O)C(C)(C)NC(=O)[C@@H](N)Cc1c[nH]cn1)[C@@H](C)O)[C@@H](C)O)C(=O)N[C@@H](CO)C(=O)N[C@@H](CCCCN)C(=O)N[C@@H](Cc1ccc(O)cc1)C(=O)N[C@@H](CC(C)C)C(=O)N[C@@H](CC(=O)O)C(=O)NC(C)(C)C(=O)N[C@@H](CCCNC(=N)N)C(=O)N[C@@H](CCCNC(=N)N)C(=O)N[C@@H](C)C(=O)N[C@@H](CCC(N)=O)C(=O)N[C@@H](CC(=O)O)C(=O)N[C@@H](Cc1ccccc1)C(=O)N[C@H](C(=O)N[C@@H](CCC(N)=O)C(=O)N[C@@H](Cc1c[nH]c2ccccc12)C(=O)N[C@@H](CC(C)C)C(=O)N[C@@H](CCSC)C(=O)N[C@@H](CC(N)=O)C(=O)N[C@H](C(N)=O)[C@@H](C)O)C(C)C
B2: Chimera DMIA1, Cys24 (SEQ ID NO: 519), parent w/o PEG (peptide)
peptide: [Isobutyryl(2-imidazol-4-yl)]SQGTFTSDYSKYLDEQAAKEFICWLMNT-NH2
SMILES: CC[C@H](C)[C@H](NC(=O)[C@H](Cc1ccccc1)NC(=O)[C@H](CCC(=O)O)NC(=O)[C@H](CCCCN)NC(=O)[C@H](C)NC(=O)[C@H](C)NC(=O)[C@H](CCC(N)=O)NC(=O)[C@H](CCC(=O)O)NC(=O)[C@H](CC(=O)O)NC(=O)[C@H](CC(C)C)NC(=O)[C@H](Cc1ccc(O)cc1)NC(=O)[C@H](CCCCN)NC(=O)[C@H](CO)NC(=O)[C@H](Cc1ccc(O)cc1)NC(=O)[C@H](CC(=O)O)NC(=O)[C@H](CO)NC(=O)[C@@H](NC(=O)[C@H](Cc1ccccc1)NC(=O)[C@@H](NC(=O)CNC(=O)[C@H](CCC(N)=O)NC(=O)[C@H](CO)NC(=O)C(C)(C)c1c[nH]cn1)[C@@H](C)O)[C@@H](C)O)C(=O)N[C@@H](CS)C(=O)N[C@@H](Cc1c[nH]c2ccccc12)C(=O)N[C@@H](CC(C)C)C(=O)N[C@@H](CCSC)C(=O)N[C@@H](CC(N)=O)C(=O)N[C@H](C(N)=O)[C@@H](C)O
B3: Chimera DMIA1, Cys24 Lactam (SEQ ID NO: 505), parent w/o PEG (peptide)
peptide: [Isobutyryl(2-imidazol-4-yl)]SQGTFTSDYSKYLDEQAAKEFICWLMNT-NH2
modifications: lactam 16-20
SMILES: CC[C@H](C)[C@H](NC(=O)[C@H](Cc1ccccc1)NC(=O)[C@H](CCC(=O)O)NC(=O)[C@@H]1CCCCNC(=O)CC[C@H](NC(=O)[C@H](CC(=O)O)NC(=O)[C@H](CC(C)C)NC(=O)[C@H](Cc2ccc(O)cc2)NC(=O)[C@H](CCCCN)NC(=O)[C@H](CO)NC(=O)[C@H](Cc2ccc(O)cc2)NC(=O)[C@H](CC(=O)O)NC(=O)[C@H](CO)NC(=O)[C@@H](NC(=O)[C@H](Cc2ccccc2)NC(=O)[C@@H](NC(=O)CNC(=O)[C@H](CCC(N)=O)NC(=O)[C@H](CO)NC(=O)C(C)(C)c2c[nH]cn2)[C@@H](C)O)[C@@H](C)O)C(=O)N[C@@H](CCC(N)=O)C(=O)N[C@@H](C)C(=O)N[C@@H](C)C(=O)N1)C(=O)N[C@@H](CS)C(=O)N[C@@H](Cc1c[nH]c2ccccc12)C(=O)N[C@@H](CC(C)C)C(=O)N[C@@H](CCSC)C(=O)N[C@@H](CC(N)=O)C(=O)N[C@H](C(N)=O)[C@@H](C)O
B4: E16, K20 AIB2, Cys24 Lactam (SEQ ID NO: 517), parent w/o PEG (peptide)
peptide: H[Aib]QGTFTSDYSKYLDERRAKDFVCWLMNT-NH2
modifications: lactam 16-20; N-terminus assumed
SMILES: CSCC[C@H](NC(=O)[C@H](CC(C)C)NC(=O)[C@H](Cc1c[nH]c2ccccc12)NC(=O)[C@H](CS)NC(=O)[C@@H](NC(=O)[C@H](Cc1ccccc1)NC(=O)[C@H](CC(=O)O)NC(=O)[C@@H]1CCCCNC(=O)CC[C@H](NC(=O)[C@H](CC(=O)O)NC(=O)[C@H](CC(C)C)NC(=O)[C@H](Cc2ccc(O)cc2)NC(=O)[C@H](CCCCN)NC(=O)[C@H](CO)NC(=O)[C@H](Cc2ccc(O)cc2)NC(=O)[C@H](CC(=O)O)NC(=O)[C@H](CO)NC(=O)[C@@H](NC(=O)[C@H](Cc2ccccc2)NC(=O)[C@@H](NC(=O)CNC(=O)[C@H](CCC(N)=O)NC(=O)C(C)(C)NC(=O)[C@@H](N)Cc2c[nH]cn2)[C@@H](C)O)[C@@H](C)O)C(=O)N[C@@H](CCCNC(=N)N)C(=O)N[C@@H](CCCNC(=N)N)C(=O)N[C@@H](C)C(=O)N1)C(C)C)C(=O)N[C@@H](CC(N)=O)C(=O)N[C@H](C(N)=O)[C@@H](C)O
B5: Chimera AIB2, Gly29,30 Cys24 Cex Lactam (SEQ ID NO: 491), parent w/o PEG (peptide)
peptide: H[Aib]QGTFTSDYSKYLDEQAAKEFICWLMNGGPSSGAPPPS-NH2
modifications: lactam 16-20; N-terminus assumed
SMILES: CC[C@H](C)[C@H](NC(=O)[C@H](Cc1ccccc1)NC(=O)[C@H](CCC(=O)O)NC(=O)[C@@H]1CCCCNC(=O)CC[C@H](NC(=O)[C@H](CC(=O)O)NC(=O)[C@H](CC(C)C)NC(=O)[C@H](Cc2ccc(O)cc2)NC(=O)[C@H](CCCCN)NC(=O)[C@H](CO)NC(=O)[C@H](Cc2ccc(O)cc2)NC(=O)[C@H](CC(=O)O)NC(=O)[C@H](CO)NC(=O)[C@@H](NC(=O)[C@H](Cc2ccccc2)NC(=O)[C@@H](NC(=O)CNC(=O)[C@H](CCC(N)=O)NC(=O)C(C)(C)NC(=O)[C@@H](N)Cc2c[nH]cn2)[C@@H](C)O)[C@@H](C)O)C(=O)N[C@@H](CCC(N)=O)C(=O)N[C@@H](C)C(=O)N[C@@H](C)C(=O)N1)C(=O)N[C@@H](CS)C(=O)N[C@@H](Cc1c[nH]c2ccccc12)C(=O)N[C@@H](CC(C)C)C(=O)N[C@@H](CCSC)C(=O)N[C@@H](CC(N)=O)C(=O)NCC(=O)NCC(=O)N1CCC[C@H]1C(=O)N[C@@H](CO)C(=O)N[C@@H](CO)C(=O)NCC(=O)N[C@@H](C)C(=O)N1CCC[C@H]1C(=O)N1CCC[C@H]1C(=O)N1CCC[C@H]1C(=O)N[C@@H](CO)C(N)=O

Legend:
Experiment in all cases: cell-based or functional assay
[1] = molecular target: T1, GLP-1 receptor (UniProt P43220 24-463, limits assumed)
[2] = molecular target: T2, glucagon receptor (UniProt P47871 26-477, limits assumed)
T2 sequence (P47871 26-477 limits assumed): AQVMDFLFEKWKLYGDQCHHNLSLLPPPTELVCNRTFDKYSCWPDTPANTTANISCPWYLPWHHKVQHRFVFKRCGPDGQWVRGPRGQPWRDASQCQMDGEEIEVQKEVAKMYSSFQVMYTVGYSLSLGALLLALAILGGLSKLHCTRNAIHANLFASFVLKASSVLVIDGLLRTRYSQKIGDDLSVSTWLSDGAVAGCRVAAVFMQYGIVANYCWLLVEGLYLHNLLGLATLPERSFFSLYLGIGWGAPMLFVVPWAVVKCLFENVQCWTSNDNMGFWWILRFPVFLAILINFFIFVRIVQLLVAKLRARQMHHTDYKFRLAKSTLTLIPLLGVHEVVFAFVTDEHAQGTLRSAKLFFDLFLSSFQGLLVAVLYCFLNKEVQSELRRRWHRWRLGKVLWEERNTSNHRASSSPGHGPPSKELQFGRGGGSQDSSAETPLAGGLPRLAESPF

[3] = molecular target: T1, GLP-1 receptor; remark: listed apart in the source
[4] = molecular target: T2, glucagon receptor; remark: listed apart in the source

Binder | % Potency Relative to Native [1] [%] | % Potency Relative to Native [2] [%] | % Activity of GLP-1 [3] [%] | EC50 [3] [nM] | % Activity of Glucagon [4] [%] | EC50 [4] [nM]
[Isobutyryl(2-imidazol-4-yl)]SQGTFTSDYSKYLDERRAKDFVC(PEG)WLMNGGPSSGAPPPS-NH2 (lactam 16-20; reading uncertain; also: PEG size not given here) [E16, K20 DMIA1, Gly29,30 Cys24 Cex Lactam (SEQ ID NO: 513), parent w/PEG] | 11.3 | 12.6 | – | – | – | –
B1 | – | – | 33.3 | 0.024 | 77.3 | 0.044
B2 | 64.5 | 28.9 | – | – | – | –
[DMIA]SQGTFTSDK(Myristoyl)SKYLDERRAKDFVQWLMNT-NH2 (reading uncertain) [DMIA1, K10(C14), [E16/K20]-Gluc Amide] | – | – | 30 | 0.05 | 204 | –
H[Aib]QGTFTSDYSKYLDERAAKDFVC(PEG)WLMNT-NH2 (reading uncertain) [E16, K20AIB2, A18 Cys24 (SEQ ID NO: 492), parent w/PEG] | 73.5 | 1.1 | – | – | – | –
H[Aib]QGTFTSDK(Palmitoyl)SKYLD[Aib]RRAQDFVQWLMNT-NH2 [AIB2, AIB16, K10(C16) Gluc Amide (SEQ ID NO: 611)] | – | – | 72.3 | – | 170 | 0.02
HSQGTFTSDYSKYLDEQAAKEFIC(PEG)WLMNT-NH2 (reading uncertain) [Chimera Cys24 (SEQ ID NO: 518), parent w/PEG] | 29.3 | 19.8 | – | – | – | –
H[Aib]QGTFTSDYSKYLDERAAKDFVC(PEG)WLMNGGPSSGAPPPS-NH2 (not fully specified; reading uncertain) [E16, K20AIB2, A18 Gly29,30 Cys24 Cex (SEQ ID NO: 496), parent w/PEG] | 88.5 | 0.1 | – | – | – | –
[Isobutyryl(2-imidazol-4-yl)]SQGTFTSDYSKYLDEQAAKEFIC(PEG)WLMNT-NH2 (reading uncertain) [Chimera DMIA1, Cys24 (SEQ ID NO: 519), parent w/PEG] | 19.3 | 6.9 | – | – | – | –
[DMIA]SQGTFTSDYSKYLDERRAKDFVCWLMNGGPSSGAPPPS-NH2 (lactam 16-20; reading uncertain) [E16, K20 DMIA1, Gly29,30 Cys24 Cex Lactam (SEQ ID NO: 513), parent w/o PEG] | 78.3 | 116 | – | – | – | –
H[Aib]QGTFTSDYSKYLDERRAKDFVC(PEG)WLMNT-NH2 (lactam 16-20; reading uncertain) [E16, K20 AIB2, Cys24 Lactam (SEQ ID NO: 517), parent w/PEG] | 31 | 15.8 | – | – | – | –
H[Aib]QGTFTSDYSKYLDEQAAKEFIC(PEG)WLMNGGPSSGAPPPS-NH2 (lactam 16-20; reading uncertain) [Chimera AIB2, Gly29,30 Cys24 Cex Lactam (SEQ ID NO: 491), parent w/PEG] | 96.4 | 1.4 | – | – | – | –
[Isobutyryl(2-imidazol-4-yl)]SQGTFTSDYSKYLDEQAAKEFIC(PEG)WLMNT-NH2 (lactam 16-20; reading uncertain) [Chimera DMIA1, Cys24 Lactam (SEQ ID NO: 505), parent w/PEG] | 12.5 | 19.1 | – | – | – | –
XSQGTFTSDKSKYLDERRAKDFVQWLMNT (DMIA at 1; Lys 10-C18 acyl; [E16/K20]; C-terminal amide) [DMIA1, K10(C18), [E16/K20]-Gluc Amide] | – | – | 136 | 0.011 | 42.3 | –
B3 | 82.5 | 161 | – | – | – | –
B4 | 96.9 | 108 | – | – | – | –
[Isobutyryl(2-imidazol-4-yl)]SQGTFTSDYSKYLDEQAAKEFIAWLMNC(PEG)-NH2 (reading uncertain) [Chimera DMIA1, Cys29 (SEQ ID NO: 520), parent w/PEG] | 27.3 | 5.3 | – | – | – | –
XSQGTFTSDKSKYLDERRAKDFVQWLMNT (DMIA at 1; Lys 10-C16 acyl; [E16/K20]; C-terminal amide) [DMIA1, K10(C16), [E16/K20]-Gluc Amide] | – | – | 100 | – | 392 | –
B5 | 382 | 25.2 | – | – | – | –

From patent US20120172295A1 (INDIANA UNIVERSITY RESEARCH AND TECHNOLOGY, published 2012)
